According to publication PMC3582033 (Cell, 2011):

Assays:
[1] = molecular target: H3(1-28) with acetylated K18 (UniProt P68431 2-29, acetyl-lysine at K18); assay: ITC
[2] = molecular target: H3(1-28)K9me3K18ac histone peptide (UniProt P68431 2-29, trimethyl-lysine at K9; acetyl-lysine at K18); assay: ITC

B1: TRIM33 PHD-Bromo cassette (domain or fragment)
chain: DDDPNEDWCAVCQNGGDLLCCEKCPKVFHLTCHVPTLLSFPSGDWICTFCRDIGKPEVEYDCDNLQHSKKGKTAQGLSPVDQRKCERLLLYLYCHELSIEFQEPVPASIPNYYKIIKKPMDLSTVKKKLQKKHSQHYQIPDDFVADVRLIFKNCERFNEMMKVVQVYADTQEINLKADSEVAQAGKAVALYFEDKLTEIYSDRTFA
fold enhancement of binding over unmodified H3(1-28) [1]: 2.3 fold | fold enhancement of binding over unmodified H3(1-28) [2]: 3.5 fold
